Data: publication PMC10786891, “Massively parallel profiling of RNA-targeting CRISPR-Cas13d”
Residue numbers refer to the chain shown, from its start. Numbers in names are those of the source.

T1: EsCas13d, nuclease-dead (Eubacterium siraeum, UniProt B0MS50, R295A;H300A;R849A;H854A)
T1 sequence: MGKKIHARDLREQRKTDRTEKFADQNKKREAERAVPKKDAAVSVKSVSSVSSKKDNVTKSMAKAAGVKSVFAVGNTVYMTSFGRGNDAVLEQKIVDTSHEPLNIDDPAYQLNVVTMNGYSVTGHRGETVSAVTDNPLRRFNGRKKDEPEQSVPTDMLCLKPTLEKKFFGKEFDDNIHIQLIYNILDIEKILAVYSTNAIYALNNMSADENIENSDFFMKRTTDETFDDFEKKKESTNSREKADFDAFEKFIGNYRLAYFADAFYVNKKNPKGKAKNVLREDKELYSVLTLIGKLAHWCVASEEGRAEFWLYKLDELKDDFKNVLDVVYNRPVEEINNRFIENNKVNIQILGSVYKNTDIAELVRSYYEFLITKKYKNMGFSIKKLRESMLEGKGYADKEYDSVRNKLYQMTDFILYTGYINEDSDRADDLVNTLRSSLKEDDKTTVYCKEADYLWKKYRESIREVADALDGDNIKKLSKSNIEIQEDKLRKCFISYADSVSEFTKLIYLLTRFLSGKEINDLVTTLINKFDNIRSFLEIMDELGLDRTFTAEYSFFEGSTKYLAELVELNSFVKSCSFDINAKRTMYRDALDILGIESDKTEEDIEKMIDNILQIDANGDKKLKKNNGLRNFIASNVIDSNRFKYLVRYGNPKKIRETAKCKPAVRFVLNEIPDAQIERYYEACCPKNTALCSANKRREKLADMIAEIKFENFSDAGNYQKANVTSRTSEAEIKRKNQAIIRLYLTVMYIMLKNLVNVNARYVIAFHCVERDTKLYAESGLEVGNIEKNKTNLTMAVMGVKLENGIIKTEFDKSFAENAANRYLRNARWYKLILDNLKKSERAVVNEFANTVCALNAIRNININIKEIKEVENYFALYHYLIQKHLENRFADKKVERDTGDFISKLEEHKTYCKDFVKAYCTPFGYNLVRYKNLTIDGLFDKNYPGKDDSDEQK

B1: target 1 insG 3' of 9,insU 3' of 7 (mixed)
RNA 1: CACCCGUGCAAAAAUGCAGGGGUCUAAAACUGAGCGGAUAACCUCUCUAUGG
RNA 2: GGGAAUGGAUCCACAUCUACGAAUUCGUACCAUAGAGAGGUUAGUCUCGCUCACCGAGAUCGGAAGAGCACACGU
B2: target 1 insG 3' of 22,insA 3' of 17 (mixed)
RNA 1: B1 RNA 1
RNA 2: GGGAAUGGAUCCACAUCUACGAAUUCGUACGCAUAGAAGAGGUUAUCCGCUCACCGAGAUCGGAAGAGCACACGU
B3: target 1 G5A (mixed)
RNA 1: B1 RNA 1
RNA 2: GGGAAUGGAUCCACAUCUACGAAUUCGUACCAUAGAGAGGUUAUCCACUCACCGAGAUCGGAAGAGCACACGU
B4: target 1 insG 3' of 6,insG 3' of 2 (mixed)
RNA 1: B1 RNA 1
RNA 2: B1 RNA 2 with G44U, U45C, U47G, C48G, G49C, C50U, U51C, C52G
B5: target 1 C6A,U10A (mixed)
RNA 1: B1 RNA 1
RNA 2: B3 RNA 2 with U42A, C46A, A47G
B6: target 1 U19A,A20G (mixed)
RNA 1: B1 RNA 1
RNA 2: B3 RNA 2 with A32G, U33A, A47G
B7: target 1 U19C,A20G (mixed)
RNA 1: B1 RNA 1
RNA 2: B3 RNA 2 with A32G, U33C, A47G
B8: target 1 insC 3' of 1 (mixed)
RNA 1: B1 RNA 1
RNA 2: GGGAAUGGAUCCACAUCUACGAAUUCGUACCAUAGAGAGGUUAUCCGCUCACCCGAGAUCGGAAGAGCACACGU
B9: target 1 insC 3' of 8,insA 3' of 6 (mixed)
RNA 1: B1 RNA 1
RNA 2: B1 RNA 2 with G44U, U45C, U47C, C48A
B10: target 1 G13A,A18U (mixed)
RNA 1: B1 RNA 1
RNA 2: B3 RNA 2 with A34U, G39A, A47G
B11: target 1 insA 3' of 21,insU 3' of 20 (mixed)
RNA 1: B1 RNA 1
RNA 2: B2 RNA 2 with G31C, C32A, A35U, G36A, A37G
B12: target 1 C7U,G13A (mixed)
RNA 1: B1 RNA 1
RNA 2: B3 RNA 2 with G39A, C45U, A47G
B13: target 1 C7A,A20G (mixed)
RNA 1: B1 RNA 1
RNA 2: B3 RNA 2 with A32G, C45A, A47G
B14: target 1 G15U,A16C (mixed)
RNA 1: B1 RNA 1
RNA 2: B3 RNA 2 with A36C, G37U, A47G
B15: target 1 C6U,C21U (mixed)
RNA 1: B1 RNA 1
RNA 2: B3 RNA 2 with C31U, C46U, A47G
B16: target 1 del16 (mixed)
RNA 1: B1 RNA 1
RNA 2: GGGAAUGGAUCCACAUCUACGAAUUCGUACCAUAGGAGGUUAUCCGCUCACCGAGAUCGGAAGAGCACACGU
B17: target 1 insG 3' of 11,insG 3' of 4 (mixed)
RNA 1: B1 RNA 1
RNA 2: B1 RNA 2 with U42G, A43U, G44A, U47C, C48G, G49C, C50G
B18: target 1 A1U,G5A (mixed)
RNA 1: B1 RNA 1
RNA 2: B3 RNA 2 with A51U
B19: target 1 U8G,A14C (mixed)
RNA 1: B1 RNA 1
RNA 2: B3 RNA 2 with A38C, U44G, A47G
B20: target 1 insG 3' of 18,insA 3' of 6 (mixed)
RNA 1: B1 RNA 1
RNA 2: B1 RNA 2 with A36G, G37A, A38G, G39A, U41G, A43U, G44A, U47C, C48A
B21: target 1 insA 3' of 21,insA 3' of 3 (mixed)
RNA 1: B1 RNA 1
RNA 2: GGGAAUGGAUCCACAUCUACGAAUUCGUACCAAUAGAGAGGUUAUCCGCUACACCGAGAUCGGAAGAGCACACGU
B22: target 1 insA 3' of 6,insG 3' of 3 (mixed)
RNA 1: B1 RNA 1
RNA 2: B1 RNA 2 with G44U, U45C, U47A, C48G, G49C, C50U, U51G
B23: target 1 G13A,A16U (mixed)
RNA 1: B1 RNA 1
RNA 2: B3 RNA 2 with A36U, G39A, A47G
B24: target 1 insU 3' of 18,insA 3' of 2 (mixed)
RNA 1: B1 RNA 1
RNA 2: B21 RNA 2 with A33U, U34A, A35U, A51C, C52A
B25: target 1 U10A,G15A (mixed)
RNA 1: B1 RNA 1
RNA 2: B3 RNA 2 with G37A, U42A, A47G
B26: target 1 U8A,A20U (mixed)
RNA 1: B1 RNA 1
RNA 2: B3 RNA 2 with A32U, U44A, A47G
B27: target 1 insU 3' of 18,insG 3' of 1 (mixed)
RNA 1: B1 RNA 1
RNA 2: B21 RNA 2 with A33U, U34A, A35U, A51C, C52A, A53G
B28: target 1 G17U,A20G (mixed)
RNA 1: B1 RNA 1
RNA 2: B3 RNA 2 with A32G, G35U, A47G
B29: target 1 insU 3' of 18,insC 3' of 1 (mixed)
RNA 1: B1 RNA 1
RNA 2: B21 RNA 2 with A33U, U34A, A35U, A51C, C52A, A53C
B30: target 1 complement block 1-10 (mixed)
RNA 1: B1 RNA 1
RNA 2: GGGAAUGGAUCCACAUCUACGAAUUCGUACCAUAGAGAGGUAUAGGCGAGUCCGAGAUCGGAAGAGCACACGU
B31: target 1 A9U,G15U (mixed)
RNA 1: B1 RNA 1
RNA 2: B3 RNA 2 with G37U, A43U, A47G
B32: target 1 G5U,C22A (mixed)
RNA 1: B1 RNA 1
RNA 2: B3 RNA 2 with C30A, A47U
B33: target 1 A1C,G5A (mixed)
RNA 1: B1 RNA 1
RNA 2: B3 RNA 2 with A51C
B34: target 1 C2G,C4U (mixed)
RNA 1: B1 RNA 1
RNA 2: B3 RNA 2 with A47G, C48U, C50G

What follows are binders tested against T1, EsCas13d, nuclease-dead (assay: crRNA (strand 1, pre-loaded); Mg2+; 40 mM Tris-HCl pH 7.5, 150 mM NaCl, 6 mM MgCl2, 1 mM DTT, 0.1% Tween-20, 0.2 mg/ml BSA; 25 C; 10 min per concentration, then washed). Settings: tags: His6-TwinStrep-SUMO cleaved; N-terminal SNAP kept (SNAP-Surface 488); label: 3' end held by stalled T7 RNA polymerase.

Point of comparison: B29, Kd 23.5 ± 2 nM. Against it:
- B1 — within 1.5-fold, 16.4 ± 0.8 nM
- B2 — 3-fold higher, 71 ± 24 nM
- B3 — 2.2-fold higher, 51 ± 8 nM
- B4 — 2.3-fold lower, 10.4 ± 1.1 nM
- B5 — 3.1-fold lower, 7.7 ± 0.4 nM
- B6 — 2.4-fold higher, 56 ± 7 nM
- B7 — 2.3-fold higher, 55 ± 22 nM
- B8 — 2.6-fold lower, 9.1 ± 0.6 nM
- B9 — within 1.5-fold, 17.7 ± 0.9 nM
- B10 — within error, 22.5 ± 2 nM
- B11 — within error, 19.7 ± 1.9 nM
- B12 — 3.8-fold lower, 6.2 ± 0.7 nM
- B13 — 1.9-fold higher, 45 ± 13 nM
- B14 — 3.5-fold higher, 83 ± 16 nM
- B15 — 3.8-fold lower, 6.2 ± 0.4 nM
- B16 — 2-fold higher, 46 ± 4 nM
- B17 — 2.3-fold higher, 54 ± 13 nM
- B18 — within 1.5-fold, 34 ± 6 nM
- B19 — 3.4-fold higher, ~80 nM
- B20 — 3.1-fold higher, 73 ± 25 nM
- B21 — 1.9-fold lower, 12.2 ± 0.6 nM
- B22 — 1.8-fold lower, 13.1 ± 0.5 nM
- B23 — 1.8-fold higher, 43 ± 6 nM
- B24 — within 1.5-fold, 33.5 ± 2.6 nM
- B25 — within 1.5-fold, 31 ± 3 nM
- B26 — 3.4-fold higher, 80 ± 21 nM
- B27 — within 1.5-fold, 27.4 ± 1.3 nM
- B28 — 1.7-fold higher, 40 ± 6 nM
- B30 — within 1.5-fold, 16.6 ± 0.6 nM
- B31 — 2-fold higher, 46 ± 11 nM
- B32 — 2.3-fold higher, 54 ± 14 nM
- B33 — within error, 26 ± 9 nM
- B34 — 2.3-fold higher, 54 ± 16 nM
